Here are results for 14 molecules from patent US20180086804A1 (COMMISSARIAT A L ENERGIE ATOMIQUE ET AUX ENERGIES …, published 2018).

Like-named read-outs stand apart in the source and are kept apart here. No end group written: not given here.

For assay [1], the target named is T1, HLA-DR13 (HLA-DRB1*13:01) (human).
T1 construct: mature; purified from homozygous EBV-transformed lymphoblastoid cells with antibody L243
In words: competition ELISA vs biotin-B1 21-36. (In general: An ELISA detects its analyte on a solid surface through an enzyme-linked reagent.)

Assay [2] addresses T2, HLA-DR15 (HLA-DRB1*15:01) (human).
T2 construct: mature; purified from homozygous EBV-transformed lymphoblastoid cells with antibody L243
In words: competition ELISA vs biotin-A3 152-166.

Assay [3] concerns the target T3, HLA-DR7 (HLA-DRB1*07:01) (human).
T3 construct: mature; purified from homozygous EBV-transformed lymphoblastoid cells with antibody L243
In words: competition ELISA vs biotin-YKL.

Assay [4] deals with T4, HLA-DR11 (HLA-DRB1*11:01) (human).
T4 construct: mature; purified from homozygous EBV-transformed lymphoblastoid cells with antibody L243
In words: competition ELISA vs biotin-HA 306-318.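 Note: HLA and competitor incubated 24 to 72 h, maximal signal taken from wells lacking competitor, background from wells lacking HLA molecule.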

Assay [5] has as its target T5, HLA-DRB5 (HLA-DRB5*01:01) (human).
T5 construct: mature; purified from homozygous EBV-transformed lymphoblastoid cells with antibody L243
In words: competition ELISA vs biotin-HA 306-318.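 Note: HLA and competitor incubated 24 to 72 h, maximal signal taken from wells lacking competitor, background from wells lacking HLA molecule.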

Assay [6] addresses T6, HLA-DR1 (HLA-DRB1*01:01) (human).
T6 construct: mature; class II HLA molecule purified from homozygous EBV-transformed lymphoblastoid cells with antibody L243
In words: competition ELISA vs biotin-HA 306-318.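 Note: HLA and competitor incubated 24 to 72 h, maximal signal taken from wells lacking competitor, background from wells lacking HLA molecule.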

Assay [7] concerns the target T7, HLA-DR3 (HLA-DRB1*03:01) (human).
T7 construct: mature; purified from homozygous EBV-transformed lymphoblastoid cells with antibody L243
Put plainly: competition ELISA vs biotin-MT 2-16.

Assay [8] addresses T2, HLA-DR15 (HLA-DRB1*15:01). Put plainly: competition ELISA vs biotin-A3 152-166. The source holds these as a separate data set.
Assay [9] addresses T4, HLA-DR11 (HLA-DRB1*11:01). Put plainly: competition ELISA vs biotin-HA 306-318.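 Note: HLA and competitor incubated 24 to 72 h, maximal signal taken from wells lacking competitor, background from wells lacking HLA molecule.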 This is another data set of the same source.
Assay [10] concerns the target T5, HLA-DRB5 (HLA-DRB5*01:01). Put plainly: competition ELISA vs biotin-HA 306-318. This is another data set of the same source.
The target in assay [11] is T8, HLA-DR4 (HLA-DRB1*04:01) (human).
T8 construct: mature; purified from homozygous EBV-transformed lymphoblastoid cells with antibody L243
Put plainly: competition ELISA vs biotin-HA 306-318.

Assay [12] deals with T6, HLA-DR1 (HLA-DRB1*01:01). In words: competition ELISA vs biotin-HA 306-318. The source holds these as a separate data set.
Assay [13] deals with T9, HLA-DRB3 (HLA-DRB3*01:01) (human).
T9 construct: mature; purified from homozygous EBV-transformed lymphoblastoid cells with antibody L243
Put plainly: competition ELISA vs biotin-LOL 191-210.

Assay [14] concerns the target T10, HLA-DP401 (HLA-DPB1*04:01) (human, UniProt P20036 29-222).
T10 construct: mature; purified from homozygous EBV-transformed lymphoblastoid cells with antibody B7/21
In words: competition ELISA vs biotin-Oxy 271-287.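 Note: plates incubated 24–72 h, maximum binding defined by wells lacking competitor, background by wells lacking HLA molecule.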

Assay [15] addresses T11, HLA-DP402 (HLA-DPB1*04:02) (human, UniProt P20036 29-222).
T11 construct: mature; purified from homozygous EBV-transformed lymphoblastoid cells with antibody B7/21
In words: competition ELISA vs biotin-Oxy 271-287.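 Note: plates incubated 24–72 h, maximum binding defined by wells lacking competitor, background by wells lacking HLA molecule.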

Assay [16] addresses T3, HLA-DR7 (HLA-DRB1*07:01). Put plainly: competition ELISA vs biotin-YKL. The source holds these as a separate data set.
In assay [17] the target is T12, HLA-DRB4 (HLA-DRB4*01:01) (human).
T12 construct: mature; purified from homozygous EBV-transformed lymphoblastoid cells with antibody L243
In words: competition ELISA vs biotin-E2/E168.

The target in assay [18] is T7, HLA-DR3 (HLA-DRB1*03:01). Put plainly: competition ELISA vs biotin-MT 2-16. The source holds these as a separate data set.
Assay [19] has as its target T8, HLA-DR4 (HLA-DRB1*04:01). In words: competition ELISA vs biotin-HA 306-318. This is another data set of the same source.

On to AKINMAGAKRVPTAP-NH2 [CCNB1 17-31], for which the relative affinity amounted to 21 in assay [1]; 120 in assay [2]; 3 in the assay with HLA-DR7 (HLA-DRB1*07:01) [3]; 2 in [4]; 11 in assay [5]; 5 with HLA-DR1 (HLA-DRB1*01:01) [6]. Besides, the relative affinity in the assay with HLA-DR3 (HLA-DRB1*03:01) [7] was 833.

In the case of QHYLSYTEESLLPVM-NH2 [CCNB1 366-380], the relative affinity worked out at 47 in assay [8]; 55 in assay [9]; 471 in assay [10]; 65 with HLA-DR4 (HLA-DRB1*04:01) [11]; 32 in the assay with HLA-DR1 (HLA-DRB1*01:01) [12]; 32 in assay [13]. The relative affinity is 0.2 in [14], 0.3 in assay [15] and 1 in the assay with HLA-DR7 (HLA-DRB1*07:01) [16].

As to MTVSIIDRFMQNNCV-NH2 [CCNB1 225-239], the relative affinity turned out to be 6 in assay [17]; 1 with HLA-DR3 (HLA-DRB1*03:01) [18]; 2 in [8]; 31 in assay [9]; 79 in [10]; 100 in the assay with HLA-DR4 (HLA-DRB1*04:01) [11]. Further, the relative affinity with HLA-DR1 (HLA-DRB1*01:01) [12] was found to be 24; in assay [13] it was 9; in [14], 72; in [15] it was 35; in the assay with HLA-DR7 (HLA-DRB1*07:01) [16], 5.

As to SQIAAGAFCLALKIL-NH2 [CCNB1 342-356], the relative affinity turned out to be 57 in assay [17]; 21 in assay [8]; 3 in assay [9]; 46 in the assay with HLA-DR1 (HLA-DRB1*01:01) [12]; 239 in assay [13]; 79 in [14]. The figures for the relative affinity (in assay [15]; with HLA-DR7 (HLA-DRB1*07:01) [16]) were 25 and 20, respectively.

In the case of LPVMQHLAKNVVMVN-NH2 [CCNB1 377-391], the relative affinity in assay [1] is 2; in the assay with HLA-DR7 (HLA-DRB1*07:01) [3], 13; in assay [4], 3; in assay [5], 4080; with HLA-DR4 (HLA-DRB1*04:01) [19], 373; with HLA-DR1 (HLA-DRB1*01:01) [6], 894.

Consider RAILIDWLVQVQMKF-NH2 [CCNB1 202-216], for which the relative affinity in assay [17] is 20; with HLA-DR3 (HLA-DRB1*03:01) [18], 1; in assay [8] it was 4; in assay [9], 400; in assay [10], 55; with HLA-DR4 (HLA-DRB1*04:01) [11] it was 59. Further, the relative affinity with HLA-DR1 (HLA-DRB1*01:01) [12] came out at 1220; in assay [13], 2; in assay [14] it was 47; in [15] it was 14; with HLA-DR7 (HLA-DRB1*07:01) [16], 9.

Take PTLQHYLSYTEESLL-NH2 [CCNB1 363-377]: the relative affinity was 5 in [17]; 1 with HLA-DR3 (HLA-DRB1*03:01) [18]; 1 in [8]; 45 in assay [9]; 24 in assay [10]; 76 with HLA-DR4 (HLA-DRB1*04:01) [11]. Further, the relative affinity in the assay with HLA-DR1 (HLA-DRB1*01:01) [12] was determined as 28; in assay [13], 11; in assay [14] it was 22; in [15] it was 50; in the assay with HLA-DR7 (HLA-DRB1*07:01) [16] it was 1.

In the case of VDVEQHTLAKYLMEL-NH2 [CCNB1 315-329], the relative affinity in [1] was found to be 211; in [2] it was 7; with HLA-DR7 (HLA-DRB1*07:01) [3] it was 6; in assay [4], 632; in assay [5], 224; with HLA-DR1 (HLA-DRB1*01:01) [6] it was 2450.

In the case of LQLVGVTAMFIASKY-NH2 [CCNB1 244-258], the relative affinity in [17] came out at 98; in the assay with HLA-DR3 (HLA-DRB1*03:01) [18] it was 9; in [8], 1; in assay [9] it was 23; in [10], 1; in the assay with HLA-DR1 (HLA-DRB1*01:01) [12], 2. In addition, the relative affinity in [13] was determined as 267; in [14], 77; in assay [15], 32; in the assay with HLA-DR7 (HLA-DRB1*07:01) [16], 1.

LHFLRRASKIGEVDV-NH2 [CCNB1 303-317]: the relative affinity in [1] is 1; in [2] it was 17; in the assay with HLA-DR7 (HLA-DRB1*07:01) [3] it was 849; in assay [4], 1; in assay [5] it was 1330; with HLA-DR4 (HLA-DRB1*04:01) [19], 1390. Moreover, the relative affinity was found to be 495 with HLA-DR1 (HLA-DRB1*01:01) [6] and 3 with HLA-DR3 (HLA-DRB1*03:01) [7].

GNMRAILIDWLVQVQ-NH2 [CCNB1 199-213]: the relative affinity in assay [17] stood at 9; with HLA-DR3 (HLA-DRB1*03:01) [18] it was 1; in assay [8], 1; in assay [9] it was 77; in assay [10] it was 58; in the assay with HLA-DR4 (HLA-DRB1*04:01) [11], 56. For the same molecule, the relative affinity in the assay with HLA-DR1 (HLA-DRB1*01:01) [12] was found to be 27; in [13], 9; in [14] it was 36; in assay [15] it was 24; in the assay with HLA-DR7 (HLA-DRB1*07:01) [16], 10.

Consider FRLLQETMYMTVSII-NH2 [CCNB1 216-230], for which the relative affinity worked out at 22 in assay [17]; 1 with HLA-DR3 (HLA-DRB1*03:01) [18]; 3 in assay [8]; 14 in assay [9]; 50 in assay [10]; 2 with HLA-DR4 (HLA-DRB1*04:01) [11]. In addition, the relative affinity was determined as 7 with HLA-DR1 (HLA-DRB1*01:01) [12]; 11 in assay [13]; 2 in assay [14]; 1 in [15]; 0.5 with HLA-DR7 (HLA-DRB1*07:01) [16].

Turning to MALRVTRNSKINAEN-NH2 [CCNB1 1-15], the relative affinity in assay [1] was 58; in [2], 5; with HLA-DR7 (HLA-DRB1*07:01) [3] it was 2; in assay [4], 22; in [5], 374; with HLA-DR4 (HLA-DRB1*04:01) [19] it was 46. Also, the relative affinity in the assay with HLA-DR1 (HLA-DRB1*01:01) [6] worked out at 100.

Consider KKMLQLVGVTAMFIA-NH2 [CCNB1 241-255], for which the relative affinity came to 15 with HLA-DR3 (HLA-DRB1*03:01) [18]; 1 in assay [8]; 90 in [9]; 1 in assay [10]; 1 with HLA-DR4 (HLA-DRB1*04:01) [11]; 3 in the assay with HLA-DR1 (HLA-DRB1*01:01) [12]. Also, the relative affinity was determined as 424 in assay [14], 35 in assay [15] and 0.1 with HLA-DR7 (HLA-DRB1*07:01) [16].
